The text below walks through data of PMC2739207 (BMC Structural Biology, 2009).

Data set [1] deals with the molecule itself. The data set can be described thus: SEC; gel filtration column during protein purification, after affinity and anion exchange columns; single 280 nm absorption peak; conditions as in ref. 17.
The target of data set [2] is T1, 40 kDa C-terminal fragment of the lysosomal 66.3 kDa protein from mouse (C249-D594) (mouse, UniProt Q3TCN2 249-594, N-glycans at N441 and N520; C249 partially oxidized, modeled as cysteine sulfonic acid (OCS)).
T1 construct: lysosomal 66.3 kDa protein, mouse; C-terminal proteolytic fragment beginning at C249; ordered in 3FGR and 3FGT: C249-P592; W593, D594 and the eleven tag residues are disordered; Made by cleavage of the 66.3 kDa proprotein between S248 and C249; also called 40 kDa fragment; chain B; source: gel filtration only for the batch of 3FGR
T1 sequence (looked up): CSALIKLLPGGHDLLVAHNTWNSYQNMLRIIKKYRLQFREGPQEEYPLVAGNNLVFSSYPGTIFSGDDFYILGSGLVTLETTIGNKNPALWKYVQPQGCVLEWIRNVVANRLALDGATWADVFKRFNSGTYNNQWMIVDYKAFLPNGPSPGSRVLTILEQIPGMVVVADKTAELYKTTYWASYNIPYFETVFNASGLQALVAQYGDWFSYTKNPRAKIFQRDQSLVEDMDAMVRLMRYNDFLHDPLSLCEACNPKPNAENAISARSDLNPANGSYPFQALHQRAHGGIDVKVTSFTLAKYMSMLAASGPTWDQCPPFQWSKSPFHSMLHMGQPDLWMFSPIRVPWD
Briefly: crystal structure; crystals grown under acidic conditions (PEG 4000, NaAc/HAc pH 4.6, NH4Ac); crystal form I, space group C2, one molecule in the asymmetric unit; 3FGR at 1.8 Å, 3FGT at 2.4 Å. Conditions: both partners purified.

B1: lysosomal 66.3 kDa protein from mouse (natural protein, UniProt Q3TCN2 47-594, looked up)
chain: LPTLGPGWQRQNPDPPVSRTRSLLLDAASGQLRLEDGFHPDAVAWANLTNAIRETGWAYLDLSTNGRYNDSLQAYAAGVVEASVSEELIYMHWMNTVVNYCGPFEYEVGYCEKLKNFLEANLEWMQREMELNPDSPYWHQVRLTLLQLKGLEDSYEGRLTFPTGRFTIKPLGFLLLQISGDLEDLEPALNKTNTKPSLGSGSCSALIKLLPGGHDLLVAHNTWNSYQNMLRIIKKYRLQFREGPQEEYPLVAGNNLVFSSYPGTIFSGDDFYILGSGLVTLETTIGNKNPALWKYVQPQGCVLEWIRNVVANRLALDGATWADVFKRFNSGTYNNQWMIVDYKAFLPNGPSPGSRVLTILEQIPGMVVVADKTAELYKTTYWASYNIPYFETVFNASGLQALVAQYGDWFSYTKNPRAKIFQRDQSLVEDMDAMVRLMRYNDFLHDPLSLCEACNPKPNAENAISARSDLNPANGSYPFQALHQRAHGGIDVKVTSFTLAKYMSMLAASGPTWDQCPPFQWSKSPFHSMLHMGQPDLWMFSPIRVPWD
modifications: N-glycans at N93, N115, N236, N441 and N520; mannose 6-phosphate containing
notes: lysosomal 66.3 kDa protein, mouse; proprotein after removal of the signal peptide, L47-D594; ordered in 3FGW: P61-N239 and G245-D594; The preparation on the gel filtration column was a mixture of the uncleaved chain and the cleaved form (28 kDa plus 40 kDa fragments); the dimer is told of the 66.3 kDa protein as a whole; also called uncleaved 66.3 kDa protein; uncleaved form (3FGW)
With B1, the “stoichiometry N” value in data set [1] is 2.

B2: 28 kDa N-terminal fragment of the lysosomal 66.3 kDa protein from mouse (L47-S248) (domain or fragment, UniProt Q3TCN2 47-248, looked up)
chain: LPTLGPGWQRQNPDPPVSRTRSLLLDAASGQLRLEDGFHPDAVAWANLTNAIRETGWAYLDLSTNGRYNDSLQAYAAGVVEASVSEELIYMHWMNTVVNYCGPFEYEVGYCEKLKNFLEANLEWMQREMELNPDSPYWHQVRLTLLQLKGLEDSYEGRLTFPTGRFTIKPLGFLLLQISGDLEDLEPALNKTNTKPSLGSGS
modifications: N-glycans at N93, N115 and N236
notes: lysosomal 66.3 kDa protein, mouse; N-terminal proteolytic fragment after cleavage between S248 and C249; residues L47-S248 by mass spectrometry; ordered in 3FGR: V63-T238 and G245-S248; Made by cleavage of the 66.3 kDa proprotein; it never stood apart from the 40 kDa fragment; The protein batch also holds the shorter form L47-S246 and the uncleaved protein; also called 28 kDa fragment; …
Take B2: the binding result in data set [2] is reported as “binds”.

B3: 28 kDa N-terminal fragment of the lysosomal 66.3 kDa protein from mouse, shorter form (L47-S246) (domain or fragment, UniProt Q3TCN2 47-246, looked up)
chain: LPTLGPGWQRQNPDPPVSRTRSLLLDAASGQLRLEDGFHPDAVAWANLTNAIRETGWAYLDLSTNGRYNDSLQAYAAGVVEASVSEELIYMHWMNTVVNYCGPFEYEVGYCEKLKNFLEANLEWMQREMELNPDSPYWHQVRLTLLQLKGLEDSYEGRLTFPTGRFTIKPLGFLLLQISGDLEDLEPALNKTNTKPSLGS
modifications: N-glycans at N115 and N236 seen in 3FGT
notes: lysosomal 66.3 kDa protein, mouse; 28 kDa fragment truncated at the C-terminus by two residues; residues L47-S246 by mass spectrometry; ordered in 3FGT: D60-N239; residues after N239 are disordered in the structure; also called shorter version of the 28 kDa fragment; chain A of 3FGT; source: HT1080 human fibrosarcoma cells, overexpressed, purified (original protocol lacking a gel filtration)
Take B3: the binding result in data set [2] was “binds”.

Broadly, the stoichiometry N is the number of molecules, sites or subunits per partner or assembly.
